From patent publication US20140286957A1 (Teva, published 2014)
Read-outs that look alike come from different tables or passages of the source.

Columns and labels:
[1] = molecular target: T1, Human CD1d/β2M (human, UniProt P15813 20-301; P61769 21-119); experiment: SPR, transfection supernatant
T1 construct: also called hCD1d; recombinant human CD1d

[2] = molecular target: T2, Human CD1d on cells (human, UniProt P15813 20-335); experiment: cell-based or functional assay
T2 sequence (looked up): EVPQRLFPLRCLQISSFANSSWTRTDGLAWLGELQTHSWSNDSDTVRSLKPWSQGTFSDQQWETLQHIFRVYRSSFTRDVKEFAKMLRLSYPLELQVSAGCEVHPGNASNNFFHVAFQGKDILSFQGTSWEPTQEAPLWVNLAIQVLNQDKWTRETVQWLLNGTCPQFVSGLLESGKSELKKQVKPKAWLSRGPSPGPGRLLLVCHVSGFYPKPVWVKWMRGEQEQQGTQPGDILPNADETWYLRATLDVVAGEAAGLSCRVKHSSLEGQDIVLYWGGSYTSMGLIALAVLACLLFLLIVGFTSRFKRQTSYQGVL

[3] = molecular target: T2, Human CD1d on cells; experiment: cell-based or functional assay; remark: listed apart in the source
[4] = molecular target: T2, Human CD1d on cells; experiment: cell-based or functional assay; remark: listed apart in the source
[5] = molecular target: T1, Human CD1d/β2M; experiment: SPR
[6] = molecular target: T2, Human CD1d on cells; experiment: cell-based or functional assay; remark: listed apart in the source
[7] = molecular target: T2, Human CD1d on cells; experiment: cell-based or functional assay; remark: listed apart in the source

B1: 401.11.74 (antibody, name in Kabat numbering, V domains shown)
VH: QVQLVGSGGGLVKPGRSLRLSCAASGFTFDDYAMHWVRQAPGKGLEWVATIIWNSAIIGYADSVKGRFIVSRDNAKNSLYLQMNSLRAEDMALYYCAKDMCSKSGCPDGYFDSWGQGTLVTVSS
VL: DIQMTQSPSSVSASVGDRVTITCRASQHISSWLAWYQQKPGKAPNLLIYAASSLQSGVSSRFSGSGSGTDFTLTISSLQPEDFATYYCQQANRFPLTFGGGTKLEIKR
Kd [1]: 0.0933 nM

B2: 401.11.181 (antibody, IgG4, V domains shown)
VH: QVQLVESGGGLVKPGRSLRLSCAASGFTFDDYAMHWVRQAPGKGLEWVATIIWNSAIIGYADSVKGRFIVSRDNAKNSLYLQMNSLRAEDTALYYCAKDMCSSGGCPDGYFDSWGQGTLVTVSS
VL: DIQMTQSPSSVSASVGDRVTITCRASQHISSWLAWYQQKPGKAPKLLIYAASSLQSGVPSRFSGSGSGTDFTLTISSLQPEDFATYYCQQANRFPLTFGGGTKLEIKR
NKT IFN-γ EC50 (THP-1) [2]: 3.25 ng/mL | NKT IFN-γ EC50 (moDC) [2]: 2.63 ng/mL | NKT IL-4 EC50 (THP-1) [2]: 3.19 ng/mL | NKT IL-4 EC50 (moDC) [2]: 1.1 ng/mL | NKT IL-13 EC50 (THP-1) [2]: 5.04 ng/mL

B3: 401.11.83 (antibody, name in Kabat numbering, V domains shown)
VH: QVQLVGSGGGLVKPGRSLRLSCAASGFTFDDYAMHWVRQAPGKGLEWVATIIWNSAIIGYADSVKGRFIVSRDNAKNSLYLQMNSLRAEDMALYYCAKDMCSSKGCPDGYFDSWGQGTLVTVSS
VL: DIQMTQSPSSVSASVGDRVTITCRASQHISSWLAWYQQKPGKAPNLLIYAASSLQSGVSSRFSGSGSGTDFTLTISSLQPEDFATYYCQQANRFPLTFGGGTKLEIKR
Kd [1]: 1.55 nM

B4: 401.11.80 (antibody, name in Kabat numbering, V domains shown)
VH: QVQLVGSGGGLVKPGRSLRLSCAASGFTFDDYAMHWVRQAPGKGLEWVATIIWNSAIIGYADSVKGRFIVSRDNAKNSLYLQMNSLRAEDMALYYCAKDMCSSWGCPDGYFDSWGQGTLVTVSS
VL: DIQMTQSPSSVSASVGDRVTITCRASQHISSWLAWYQQKPGKAPNLLIYAASSLQSGVSSRFSGSGSGTDFTLTISSLQPEDFATYYCQQANRFPLTFGGGTKLEIKR
Kd [1]: 2.34 nM

B5: 401.11.81 (antibody, name in Kabat numbering, V domains shown)
VH: QVQLVGSGGGLVKPGRSLRLSCAASGFTFDDYAMHWVRQAPGKGLEWVATIIWNSAIIGYADSVKGRFIVSRDNAKNSLYLQMNSLRAEDMALYYCAKDMCSSLGCPDGYFDSWGQGTLVTVSS
VL: DIQMTQSPSSVSASVGDRVTITCRASQHISSWLAWYQQKPGKAPNLLIYAASSLQSGVSSRFSGSGSGTDFTLTISSLQPEDFATYYCQQANRFPLTFGGGTKLEIKR
Kd [1]: 0.552 nM

B6: 401.11.77 (antibody, name in Kabat numbering, V domains shown)
VH: QVQLVGSGGGLVKPGRSLRLSCAASGFTFDDYAMHWVRQAPGKGLEWVATIIWNSAIIGYADSVKGRFIVSRDNAKNSLYLQMNSLRAEDMALYYCAKDMCSGSGCPDGYFDSWGQGTLVTVSS
VL: DIQMTQSPSSVSASVGDRVTITCRASQHISSWLAWYQQKPGKAPNLLIYAASSLQSGVSSRFSGSGSGTDFTLTISSLQPEDFATYYCQQANRFPLTFGGGTKLEIKR
Kd [1]: 0.272 nM

B7: 401.11.180 (antibody, IgG4, V domains shown)
VH: QVQLVGSGGGLVKPGRSLRLSCAASGFTFDDYAMHWVRQAPGKGLEWVATIIWNSAIIGYADSVKGRFIVSRDNAKNSLYLQMNSLRAEDTALYYCAKDLCSSGGCPEGYFDSWGQGTLVTVSS
VL: DIQMTQSPSSVSASVGDRVTITCRASQHISSWLAWYQQKPGKAPKLLIYAASSLQSGVPSRFSGSGSGTDFTLTISSLQPEDFATYYCQQANRFPLTFGGGTKLEIKR
NKT IFN-γ EC50 (moDC) [3]: 49.5 ng/mL | NKT IL-4 EC50 (moDC) [3]: 1.31 ng/mL | NKT IL-5 EC50 (moDC) [3]: 3.35 ng/mL | NKT IL-13 EC50 (moDC) [3]: 4.09 ng/mL

B8: 401.11.159 (antibody, IgG4, V domains shown)
VH: EVQLVESGGGLVQPGRSLRLSCAASGFTFDDYAMHWVRQAPGKGLEWVATIIWNSAIIGYADSVKGRFIVSRDNAKNSLYLQMNSLRAEDMALYYCAKDMCSSGGCPDGYFDSWGQGTLVTVSS
VL: DIQMTQSPSSVSASVGDRVTITCRASQHISSWLAWYQQKPGKAPKLLIYAASSLQSGVSSRFSGSGSGTDFTLTISSLQPEDFATYYCQQANRFPLTFGGGTKLEIKR
NKT IL-4 EC50 (moDC) [4]: 1.69 ng/mL | NKT IL-13 EC50 (moDC) [4]: 10.5 ng/mL

B9: 401.11.165 (antibody, IgG4, V domains shown)
VH: EVQLVESGGGLVQPGRSLRLSCAASGFTFDDYAMHWVRQAPGKGLEWVATIIWNSAIIGYADSVKGRFIVSRDNAKNSLYLQMNSLRAEDTALYYCAKDMCSSGGCPDGYFDSWGQGTLVTVSS
VL: DIQMTQSPSSVSASVGDRVTITCRASQHISSWLAWYQQKPGKAPKLLIYAASSLQSGVPSRFSGSGSGTDFTLTISSLQPEDFATYYCQQANRFPLTFGGGTKLEIKR
notes: IgG4 (S228P)
Kd [5]: 0.168 nM | NKT IFN-γ EC50 (THP-1) [6]: 6.15 ng/mL | NKT IL-4 EC50 (THP-1) [6]: 1.11 ng/mL | NKT IL-5 EC50 (THP-1) [6]: 3.73 ng/mL | NKT IL-13 EC50 (THP-1) [6]: 5.76 ng/mL | NKT TNF EC50 (THP-1) [6]: 3.04 ng/mL

B10: 401.11.85 (antibody, name in Kabat numbering, V domains shown)
VH: QVQLVGSGGGLVKPGRSLRLSCAASGFTFDDYAMHWVRQAPGKGLEWVATIIWNSAIIGYADSVKGRFIVSRDNAKNSLYLQMNSLRAEDMALYYCAKDMCSSYGCPDGYFDSWGQGTLVTVSS
VL: DIQMTQSPSSVSASVGDRVTITCRASQHISSWLAWYQQKPGKAPNLLIYAASSLQSGVSSRFSGSGSGTDFTLTISSLQPEDFATYYCQQANRFPLTFGGGTKLEIKR
Kd [1]: 82.3 nM

B11: 401.11.79 (antibody, name in Kabat numbering, V domains shown)
VH: QVQLVGSGGGLVKPGRSLRLSCAASGFTFDDYAMHWVRQAPGKGLEWVATIIWNSAIIGYADSVKGRFIVSRDNAKNSLYLQMNSLRAEDMALYYCAKDMCSSTGCPDGYFDSWGQGTLVTVSS
VL: DIQMTQSPSSVSASVGDRVTITCRASQHISSWLAWYQQKPGKAPNLLIYAASSLQSGVSSRFSGSGSGTDFTLTISSLQPEDFATYYCQQANRFPLTFGGGTKLEIKR
binding result [1]: no binding

B12: 401.11.82 (antibody, name in Kabat numbering, V domains shown)
VH: QVQLVGSGGGLVKPGRSLRLSCAASGFTFDDYAMHWVRQAPGKGLEWVATIIWNSAIIGYADSVKGRFIVSRDNAKNSLYLQMNSLRAEDMALYYCAKDMCSSVGCPDGYFDSWGQGTLVTVSS
VL: DIQMTQSPSSVSASVGDRVTITCRASQHISSWLAWYQQKPGKAPNLLIYAASSLQSGVSSRFSGSGSGTDFTLTISSLQPEDFATYYCQQANRFPLTFGGGTKLEIKR
binding result [1]: no binding

B13: 401.11.84 (antibody, name in Kabat numbering, V domains shown)
VH: QVQLVGSGGGLVKPGRSLRLSCAASGFTFDDYAMHWVRQAPGKGLEWVATIIWNSAIIGYADSVKGRFIVSRDNAKNSLYLQMNSLRAEDMALYYCAKDMCSSRGCPDGYFDSWGQGTLVTVSS
VL: DIQMTQSPSSVSASVGDRVTITCRASQHISSWLAWYQQKPGKAPNLLIYAASSLQSGVSSRFSGSGSGTDFTLTISSLQPEDFATYYCQQANRFPLTFGGGTKLEIKR
Kd [1]: 1.12 nM

B14: 401.11.75 (antibody, name in Kabat numbering, V domains shown)
VH: QVQLVGSGGGLVKPGRSLRLSCAASGFTFDDYAMHWVRQAPGKGLEWVATIIWNSAIIGYADSVKGRFIVSRDNAKNSLYLQMNSLRAEDMALYYCAKDMCSRSGCPDGYFDSWGQGTLVTVSS
VL: DIQMTQSPSSVSASVGDRVTITCRASQHISSWLAWYQQKPGKAPNLLIYAASSLQSGVSSRFSGSGSGTDFTLTISSLQPEDFATYYCQQANRFPLTFGGGTKLEIKR
binding result [1]: no binding

B15: 401.11.151 (antibody, IgG4, V domains shown)
VH: EVQLVESGGGLVQPGRSLRLSCAASGFTFDDYAMHWVRQAPGKGLEWVATIIWNSAIIGYADSVKGRFIVSRDNAKNSLYLQMNSLRAEDTALYYCAKDMCSSSGCPDGYFDSWGQGTLVTVSS
VL: DIQMTQSPSSVSASVGDRVTITCRASQHISSWLAWYQQKPGKAPKLLIYAASSLQSGVPSRFSGSGSGTDFTLTISSLQPEDFATYYCQQANRFPLTFGGGTKLEIKR
NKT IL-4 EC50 (moDC) [4]: 12.9 ng/mL | NKT IL-13 EC50 (moDC) [4]: 57.5 ng/mL

B16: 402.8.54 (antibody, IgG4, V domains shown)
VH: QVQLQESGPGLVKPSETLSLTCAVYGGSFSGYYWSWIRQPPGKGLEWIGEINHAGSTNYNPSLKSRVTISVDTSKNQFSLKLSSVTAADTAVYYCARGEIYDFWKSYMEVWGKGTTVTVSS
VL: QTVVTQEPSLTVSPGGTVTLTCASSSGAVSSGNFPNWFQQKPGQAPRALIFSASNKHSWTPARFSGSLLGGKAVLTLSGVQPEDEAEYYCLLYFGDTQLGVFGGGTKVTVL
NKT IFN-γ EC50 (moDC) [7]: 138 ng/mL | NKT IL-4 EC50 (moDC) [7]: 109 ng/mL

B17: 402.8.55 (antibody, IgG4, V domains shown)
VH: QVQLQESGPGLVKPSETLSLTCAVYGGSFSGYYWSWIRQPPGKGLEWIGEINHAGSTNYNPSLKSRVTISVDTSKNQFSLKLSSVTAADTAVYYCARGEIYDFWKSYLEVWGKGTTVTVSS
VL: QTVVTQEPSLTVSPGGTVTLTCASSSGAVSSGNFPNWFQQKPGQAPRALIFSASNKHSWTPARFSGSLLGGKAVLTLSGVQPEDEAEYYCLLYFGDTQLGVFGGGTKVTVL
NKT IFN-γ EC50 (moDC) [7]: 445 ng/mL | NKT IL-4 EC50 (moDC) [7]: 175 ng/mL
